# Laboratory results as given in IntAct's records for PubMed 31515488.
# B1: Fructose-1,6-bisphosphatase 1 (Homo sapiens), P09467 (parent)
# chain: MADQAPFDTDVNTLTRFVMEEGRKARGTGELTQLLNSLCTAVKAISSAVRKAGIAHLYGIAGSTNVTGDQVKKLDVLSNDLVMNMLKSSFATCVLVSEEDKHAIIVEPEKRGKYVVCFDPLDGSSNIDCLVSVGTIFGIYRKKSTDEPSEKDALQPGRNLVAAGYALYGSATMLVLAMDCGVNCFMLDPAIGEFILVDKDVKIKKKGKIYSLNEGYARDFDPAVTEYIQRKKFPPDNSAPYGARYVGSMVADVHRTLVYGGIFLYPANKKSPNGKLRLLYECNPMAYVMEKAGGMATTGKEAVLDVIPTDIHQRAPVILGSPDDVLEFLKVYEKHSAQ
# partner: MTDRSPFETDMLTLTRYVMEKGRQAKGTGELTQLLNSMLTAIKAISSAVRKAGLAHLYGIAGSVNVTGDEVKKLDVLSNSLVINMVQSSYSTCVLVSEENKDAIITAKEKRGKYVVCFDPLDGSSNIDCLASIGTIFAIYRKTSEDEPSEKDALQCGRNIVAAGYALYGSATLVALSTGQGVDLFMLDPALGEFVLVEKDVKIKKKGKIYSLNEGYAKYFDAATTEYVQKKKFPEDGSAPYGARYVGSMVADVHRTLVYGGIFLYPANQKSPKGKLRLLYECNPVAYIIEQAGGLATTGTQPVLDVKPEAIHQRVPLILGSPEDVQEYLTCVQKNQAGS
# B2: Calcium-binding and coiled-coil domain-containing protein 2 (Homo sapiens), Q13137 (parent)
# chain: MEETIKDPPTSAVLLDHCHFSQVIFNSVEKFYIPGGDVTCHYTFTQHFIPRRKDWIGIFRVGWKTTREYYTFMWVTLPIDLNNKSAKQQEVQFKAYYLPKDDEYYQFCYVDEDGVVRGASIPFQFRPENEEDILVVTTQGEVEEIEQHNKELCKENQELKDSCISLQKQNSDMQAELQKKQEELETLQSINKKLELKVKEQKDYWETELLQLKEQNQKMSSENEKMGIRVDQLQAQLSTQEKEMEKLVQGDQDKTEQLEQLKKENDHLFLSLTEQRKDQKKLEQTVEQMKQNETTAMKKQQELMDENFDLSKRLSENEIICNALQRQKERLEGENDLLKRENSRLLSYMGLDFNSLPYQVPTSDEGGARQNPGLAYGNPYSGIQESSSPSPLSIKKCPICKADDICDHTLEQQQMQPLCFNCPICDKIFPATEKQIFEDHVFCHSL
# partner: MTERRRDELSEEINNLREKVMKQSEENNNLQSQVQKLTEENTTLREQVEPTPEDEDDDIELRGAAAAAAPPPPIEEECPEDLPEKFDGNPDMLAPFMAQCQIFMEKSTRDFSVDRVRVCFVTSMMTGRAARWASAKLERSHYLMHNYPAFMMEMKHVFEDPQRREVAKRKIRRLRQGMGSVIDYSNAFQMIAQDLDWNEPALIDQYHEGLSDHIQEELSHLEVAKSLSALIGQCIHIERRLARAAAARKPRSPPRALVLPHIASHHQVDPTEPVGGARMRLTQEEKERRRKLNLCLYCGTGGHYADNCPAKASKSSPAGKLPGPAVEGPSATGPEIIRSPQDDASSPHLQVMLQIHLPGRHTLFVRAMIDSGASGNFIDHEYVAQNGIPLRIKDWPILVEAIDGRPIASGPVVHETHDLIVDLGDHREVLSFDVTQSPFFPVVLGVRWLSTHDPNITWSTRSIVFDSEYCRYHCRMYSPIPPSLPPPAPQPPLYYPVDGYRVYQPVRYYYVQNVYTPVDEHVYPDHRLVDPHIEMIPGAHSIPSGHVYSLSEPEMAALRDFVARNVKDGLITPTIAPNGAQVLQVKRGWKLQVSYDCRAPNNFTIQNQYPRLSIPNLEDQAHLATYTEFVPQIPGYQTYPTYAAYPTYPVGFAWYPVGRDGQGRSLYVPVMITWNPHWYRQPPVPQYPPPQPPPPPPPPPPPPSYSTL
# B3: DNA topoisomerase 3-beta-1 (Homo sapiens), O95985 (parent)
# chain: MKTVLMVAEKPSLAQSIAKILSRGSLSSHKGLNGACSVHEYTGTFAGQPVRFKMTSVCGHVMTLDFLGKYNKWDKVDPAELFSQAPTEKKEANPKLNMVKFLQVEGRGCDYIVLWLDCDKEGENICFEVLDAVLPVMNKAHGGEKTVFRARFSSITDTDICNAMACLGEPDHNEALSVDARQELDLRIGCAFTRFQTKYFQGKYGDLDSSLISFGPCQTPTLGFCVERHDKIQSFKPETYWVLQAKVNTDKDRSLLLDWDRVRVFDREIAQMFLNMTKLEKEAQVEATSRKEKAKQRPLALNTVEMLRVASSSLGMGPQHAMQTAERLYTQGYISYPRTETTHYPENFDLKGSLRQQANHPYWADTVKRLLAEGINRPRKGHDAGDHPPITPMKSATEAELGGDAWRLYEYITRHFIATVSHDCKYLQSTISFRIGPELFTCSGKTVLSPGFTEVMPWQSVPLEESLPTCQRGDAFPVGEVKMLEKQTNPPDYLTEAELITLMEKHGIGTDASIPVHINNICQRNYVTVESGRRLKPTNLGIVLVHGYYKIDAELVLPTIRSAVEKQLNLIAQGKADYRQVLGHTLDVFKRKFHYFVDSIAGMDELMEVSFSPLAATGKPLSRCGKCHRFMKYIQAKPSRLHCSHCDETYTLPQNGTIKLYKELRCPLDDFELVLWSSGSRGKSYPLCPYCYNHPPFRDMKKGMGCNECTHPSCQHSLSMLGIGQCVECESGVLVLDPTSGPKWKVACNKCNVVAHCFENAHRVRVSADTCSVCEAALLDVDFNKAKSPLPGDETQHMGCVFCDPVFQELVELKHAASCHPMHRGGPGRRQGRGRGRARRPPGKPNPRRPKDKMSALAAYFV
# B4: Nucleoside diphosphate kinase homolog 5 (Homo sapiens), P56597 (parent)
# chain: MEISMPPPQIYVEKTLAIIKPDIVDKEEEIQDIILRSGFTIVQRRKLRLSPEQCSNFYVEKYGKMFFPNLTAYMSSGPLVAMILARHKAISYWLELLGPNNSLVAKETHPDSLRAIYGTDDLRNALHGSNDFAAAEREIRFMFPEVIVEPIPIGQAAKDYLNLHIMPTLLEGLTELCKQKPADPLIWLADWLLKNNPNKPKLCHHPIVEEPY
# Variants of: B1
# Conditions: with FBP2, O00757
row,effect of a mutation on the interaction,Variant
1,disrupting interaction strength,G260R

# Variants of: B2
# Conditions: with peg10_human PEG10, Q86TG7
row,effect of a mutation on the interaction,Variant
1,with no effect,P389A
2,with no effect,T273A

# Variants of: B3
# Conditions: with trim1_human MID2, Q9UJV3
# Chain of trim1_human MID2, Q9UJV3 (Q9UJV3 whole entry): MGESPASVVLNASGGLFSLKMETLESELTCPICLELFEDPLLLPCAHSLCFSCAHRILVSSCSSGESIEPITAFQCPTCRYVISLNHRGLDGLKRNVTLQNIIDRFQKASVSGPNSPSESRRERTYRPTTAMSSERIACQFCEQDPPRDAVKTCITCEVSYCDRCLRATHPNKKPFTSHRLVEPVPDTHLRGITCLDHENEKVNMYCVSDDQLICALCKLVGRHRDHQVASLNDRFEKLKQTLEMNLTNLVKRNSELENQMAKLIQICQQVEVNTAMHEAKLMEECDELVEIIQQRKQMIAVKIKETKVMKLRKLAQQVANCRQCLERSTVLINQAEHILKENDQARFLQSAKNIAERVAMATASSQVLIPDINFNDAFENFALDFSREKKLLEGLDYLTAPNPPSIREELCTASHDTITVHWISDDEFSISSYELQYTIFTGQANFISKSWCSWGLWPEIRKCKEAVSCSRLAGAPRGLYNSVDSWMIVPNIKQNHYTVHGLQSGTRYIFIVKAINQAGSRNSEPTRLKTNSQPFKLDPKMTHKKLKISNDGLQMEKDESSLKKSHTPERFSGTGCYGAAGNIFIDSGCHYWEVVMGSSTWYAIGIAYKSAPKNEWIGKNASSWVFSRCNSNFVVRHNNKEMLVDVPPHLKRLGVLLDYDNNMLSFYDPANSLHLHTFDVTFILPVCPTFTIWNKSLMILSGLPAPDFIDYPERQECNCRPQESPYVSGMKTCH
row,effect of a mutation on the interaction,Variant
1,disrupting interaction strength,R267W

# Variants of: B3
# Conditions: with tri41_human TRIM41, Q8WV44
row,effect of a mutation on the interaction,Variant
1,disrupting interaction strength,R267W

# Variants of: B4
# Conditions: with dydc1_human DYDC1, Q8WWB3
# Chain of dydc1_human DYDC1, Q8WWB3 (Q8WWB3 whole entry): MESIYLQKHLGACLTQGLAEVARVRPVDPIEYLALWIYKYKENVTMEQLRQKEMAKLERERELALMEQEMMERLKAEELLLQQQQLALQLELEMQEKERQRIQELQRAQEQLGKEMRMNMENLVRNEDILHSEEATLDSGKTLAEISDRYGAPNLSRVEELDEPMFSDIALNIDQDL
row,effect of a mutation on the interaction,Variant
1,with no effect,L103F
